Test results published in the nanobody polyreactivity screen of Harvey et al. (2022).

test: yeast display, Sf9 membrane polyspecificity reagent, FACS + sequencing; frameworks hold sequencing errors
Summary of the method: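 A nanobody's polyreactivity label depends on the gate it was sorted from. Yeast display cells were stained with 10% biotinylated, detergent-solubilized Sf9 membrane reagent for 1 hour at 4 °C, enriched on streptavidin microbeads and sorted by FACS. The low and high (top ~1%) gates were set on anti-HA fluorescence for expression and streptavidin fluorescence for reagent binding.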

Sequence | polyreactivity (PSR sort gate)
QVQLVDSGGGLVQAGGSLRLSCAACGSTFVLYGMGWYRQAPGKQRELVADITGGGSSTYYADSVKGRFTISRDYAKNTVYLQMNSLKPEDTAVYYCNADYYPFYWIEPATPYLGFDYWGQGTQVTVSS | low polyreactivity
QVQLVESGGGLVQAGGTLRLSCAATGSIFPGNAMGWYRPAPGKERELVAAISGRGGSTYYADSVKGRFTISRDNAKNTVYVQMNSLKPEDTAVYYCAAAPVYRPRDSYDKHRHYYWGQCTQVTVSS | high polyreactivity
QVQLVESGGGLVQAGGSLRLSCAASGRIFGYNAMGWYRLAPGKERELVAAIRSGGSTNYADSVKGRFTISRDNAKNTVYLQMNSLKPEDTAVYYCAADDRWWYTPRPRYNYWGQGTQVTVSS | high polyreactivity
QVLIEDSGGGLVQAGGSLRLSCAASGSIFYFYAMGWYRQAPGKERELVAAISYSVGSTYYADSVKGRFTISRVNAKNTVYLQMNSLKPEDTAVDYCAADYYYGAWDGYGDEKYYYWGQGTQVTVSS | low polyreactivity
QVQLVESGGGLVQAGGSLRLSCAASGSIFDVNAMGWYRQATGKERELVAAISDSGGSTYYADSVKGRFTISRDNAKNTVYLQMNSLKPEDTAVYYSNADWSWYNYYDFDYWGHGTQVTVSS | low polyreactivity
QVQQQASGGGLVQAGGSLRLSCATSGSIFYADTMGWYRQAPGKEREFVITYYADSVKGLSRDNAKNTVYLQMNSLKPEDSAVYYCATDGVNPFYAYDYWGQGTQVTVSS | low polyreactivity
QVQLLESGAGLVQAGGSLRLSCAASGYIFYTYAMGWYRQAPGKERELVAAISSNGGSTYYADSVKGRFTISRDHAKNTVYLQMNSLKPEDTAVYYCAARGPYTRYRLSMDYWGQGTQVTVSS | high polyreactivity
QVQLVESRGGLVQAGGSLRLSCAASGSIFGWYAMGWYRPAPGKERELVAAINWSGGRTYYADSVKGRFTISRDNAKNTVYLQMNRLKPEDTAVYYCNKVVPGYSAPKYDYWGQGTQVTVSS | high polyreactivity
QVQLVESGGGLVQAGGSLRLSCAASGRIFYRNAMGWYRQAPGKERELVAAISYSGGRTYYADSVKGRFTISRDNAKNTVYLQMNSLKPEDTAVFYCAARYAWGYVDPGDYWGQGTQVTVSS | high polyreactivity
QVQLVESGGGLVQAGGSLRLSCAASGIIFRVYAMGWYRQAPGKERELVATITWSGGSTFYADSVKGRFTISRDNAKNTVYLQMNSLKPEDTAVYYCAKRGYVRSGLGRPYADDYWGQGTQVTVSS | low polyreactivity
QVQLGESWACIVQAGGSLRLSCAASGIISYLYAMGLYRHAPGKERELVAVIRTSDAITYYADSVKGRFTISRDTAKNTVYLQMNSLKPEDTAFYYCGGRPRYYLYGYDYWGQGTQVTVSS | high polyreactivity
QVQLVESGGGLVQAGGSLRISCAASGSTIAGYTMGLYRQAPGKEMELVAAISRRGSRTYYADSVKGRFTISRDNAKNTVYLQMNSLKPEDTAVYYCNARNRVYYTLSGYGYWGQGTQVTVSS | high polyreactivity
QVQLVESGGGLVQAGGSLRLSCAASGRIFWINALGWYRQAPGKERELVAAISWRGDSTYYADSVKGRFTISRDNAKNTVYLQMNSLKPEDTAVYYCAATWYSWGSEFDYWGQGTQVTVSS | high polyreactivity
QVQHVESGGGLVQAGGSLSLSCAASARTFRRNVMGLYRQAPGKERELVAAISYGANTNYADSVKGRFTISRDNAKNTVYLQMNSLKPEDTAVYYCAAGEGWRSRTFDYWGQGTQVTVSS | low polyreactivity
QVQLVESGGGLVQAGGSLRLSCAASGRTFSRYTMGWYRQAPGKEREFVAAIDRGGGTTYYADSVKGRFTISRDNAKNTVYLQMNSLKPEDTAVYYCAAERNYWSTQYYYWGQGTQVTVSS | high polyreactivity
QVQLVESGGGLVQAGGSLRLSCAASGLTFDNNAMGWYRQAPGTERELVAAISYRGSSTYYADSVKGRFTISRDNAKNTVYLQMNSLKPEDTAVYYCAADVVDLGRFDYWGQRTQVTVSS | low polyreactivity
QVQHVESGGGLVQAGGSLRLSCAASGLIFARNAMVWYRQAPGKERELVAAISSSGNTYADSVKGRFTISRDNAKNTVYLQMNSLKPEDTAVFYCAADYVRWGQRKRSRYYYWGHGTQVTVSS | high polyreactivity
QVQLVDSGGCLVQAGGSHRLSCSASGRIYPWYAMVWYRQAPGKERELVASITRNGGDTYYADSVKGRFTISRDNAKNTVYLQMNSLKPEDTAVYYCNAVRGYWFRQKDTIELGYWGQGTQVTVSS | high polyreactivity
QVQLVESGGGLVKAGGSLRLSCAASAWYAMGWYRQAPGKEREFVAAITFSGSSTYYADSVKGRFTISRDNAKNTVYLQMNSLKPEVTAVYYCNADWWEWGQGTQVTVSS | low polyreactivity
QVQLVESGGGLVQAGGSLRLSCAASGRTFGIYAMGWYRQAPGKERELVASISWSGGRTYYADSVKGRFTISRDNAKNTVYLQMNSLKPEDTAVYYCAAYGVYYPRSWQYFDWYGYWGQGTQVTVSS | high polyreactivity

Sequence | polyreactivity (PSR sort gate)
QVQLVESGGGLVQAGGSLRLSCAASGRIFGSYTMGWYRQAPGKERELVAGISRRGGSTYYADSVKGRFTISRDNAKNTVYLQMNSLKPEDTAVYYCAAEVYYFYFYIMDYWGQGTQVTVSS | high polyreactivity
QVQLVESGGGLVQAGGSLRFSCAASGRTFTVYAMGWYRQAPGKERELVAAINYSVGSTYYADSVKGRFTISRDNAKNTVYLQMNSLKPEDTAVYYCAADLYHFSYSYSYIRYDYWGQGTQVTVSS | low polyreactivity
QVQLVESGGGLVQAGGSLRLSWAASGSIFRSYAMGWYRQAPGKEREFVAAIPNSSGRTYYADSVKGRFTISRDNAKNTVYLQMNSLKPEDTAVYYCAARLPRTYQGGKLYRLQYSWGQGTQVTVSS | high polyreactivity
QGQHVESGGGLVQAGGSLRLSCAASGLTFWVYAMGWYRQPRGKERELVAVITNGGRTNYADSVKGRFTISRDNAKNTVYLLMNSLKPEDSAVYYCARPNLLSGDYWGQGTQVTVSS | high polyreactivity
QVQLVESGGGLVQAGGSLRLSCAASGSIFRYYTMGWDRQAPGKERELVAAISWSGGRTYYADSVKGRFTISRDNAKNTVYLQMNSLKPEDTAVYYCAAVRPYYYPLPTVPNLPYDYWGQGTQVTVSS | high polyreactivity
QVQLVESGGGLVQAGGSLRLSCAASGRISGVNAMGWYRQAPGKERELVATISGSGGRTYYADSVKGRFTISRDNAKNTVYLQMNSLKPEDTAVYYCNTLVQRGGYFSRRFDYWGQGTQVTVSS | low polyreactivity
QVQLVESGGGLDQAGGSLRLSWAASGITFGWYAKGWYRLAPGKERELVASISSSGSTNYADSVKGRLTISRDNAKNTVYLQMNSQKTEDTAVYYCNKDYLLRHFYIYVIEGDYWGQGTKVTVSS | low polyreactivity
QVQLVESGGGLVQAGGSLRLSCAASGRTFLHNAMGWYRQAPGKERELVAAISSRGGSTYYADSVKGRFTISRDNAKNTVYLQMNSLKPEDTAVYYCAAYIYGTYYYWGQGTQVTVSS | high polyreactivity
QVQLVESGGGLVQAGGSLRLSCAASGSTFYANAKGWYRQAPGKERELVAAISSTGGSTYYADSVKGRFTISRDNAKNTVYLQMNSLKPEDTAVYYCAARARWIVAYDLGYWGQGTQVTVSS | low polyreactivity
QVQLVESGGGLVQAGGSLRLSCAASGFTVRKYAMGWYRQAPGKERELVAAITWSGGRTYYADSVKGRFTISRDNAKNTVSLQMNSLKPEDTAVYYCAAVIQSRKYDSWGQGTQVTVSS | high polyreactivity
QVQLVESGGGLVQAGGSLRLSCAASGSIFGAYAMGWYRQAPGKERELVAAISSGGSTYADSVKGRFTISRDNAKNTVYLQMNSMKPEDTAVYYCNAVFRARNYHYNPRRFKYYYWGQGTQVSVSS | high polyreactivity
QVQLEDSGGGLVQAGGSLRLSCAASGSTFLYYARGWYRQAPGKERELVAAITSGGSTYYADSVKGRFTISRDNAKNTVYLQMNSLKPEDTAVYYCAAASRRGYYYWGQGTQVTVSS | high polyreactivity
QVQLVESGGGFVQAGGSLRLSCAASGSTFAYYTMGWYRQAPGKERELVAASYGAGGSTYYADSVKGRFTISRDNAKNTVYLQRNSLIPEDTAVYYCNVVVSVHISVSQYDYWGQGTQVTVSS | high polyreactivity
QVQLVESGGGLVQAGGSLRLSCAASGSIFYDYAMGWYRQAPGKERELVAAITASGGSTYYADSVKGRFTISRDNAKNTVYLQMNSLKPEDTAVYYCAAESESYEQVGEMDSWGQGTQVTVSS | low polyreactivity
QVQLVESGGGLVQAGGSLRLSCAASGRTFWTYAMGWYRLAPGKERELVASISKSGGSTYADSVKGRFTITRDNAKNTVYLQMNSLKPEDTAVYYCATDLSYDVWFFGPDYDYWGQGTQVTVSS | low polyreactivity
QVQLVESGGGLVQAGGSLSLSCAASGSTFVPNLMGWYRQAPGKERELVAAITWSGGTTTFYADSVKGRFTISRDNAKNTVYLQMNSLKPEDTAVYYCAVTRGGQYYPYYYWGQGTQVTVSS | low polyreactivity
QVQLVESGGGLVQAGGSLRLSCAASGRILLFYAMGWYRQAPGKERELVASIDYSGGSTTYADSVKGRFTISRDNAKNTVYLQMNRLKPEDTAVYYCNAEAWWYFWFDYWGQGTQVTVSS | low polyreactivity
QVQLVESGGGLVHAGGSLRLSCAASGSTYIFYAMGWYRQAPGKERELVPAITGGGSTYYADSVKGRFTISRDNAKNTVYLQMNSLKPEDTAVFYCARAEPYYSKSFSLGGYGYWGQGTKVTVSS | low polyreactivity
QVQLVESGGGLVQAGGILRLSCAASGRIFRGYAMVWYRQAPGKERELVAAISNGGGTNYADSVKGRFTISRDNAKNTVYLQMNSLKPEDTAVYYFATGFLQNYYKYTSSFRFYYWGQGTQVSVSS | high polyreactivity
QVQLVESGGGLVQAGGSLRLSCAASGRTLWSYTMGWYRQAPGKESELVARITIGGSTNYADSVKGRFTISRDNAKNTVYLQMNSLKPEDTAVYYCNARASYSYGSYLSKSYGYDYWGQGTQVTVSS | high polyreactivity
